Experimental data reported in paper PMC10985318.

Substrate: Nc1ncnc2c1ncn2[C@@H]1O[C@H](COP(=O)(O)OP(=O)(O)OP(=O)(O)O)[C@@H](O)[C@H]1O
Experiment: purified protein
Conditions: MgATP, MgCl2 twice the ATP concentration, 25 mM Tris/HCl pH 8.0, 60 mM KCl, 25 °C, at saturating MgATP, non-Michaelis kinetics, local double-reciprocal fit of three consecutive concentrations

B1: V1ΔHC (S. cerevisiae V1-ATPase lacking subunits H and C) (Saccharomyces cerevisiae S288C) (protein)
chain 1: AGAIENARKEIKRISLEDHAESEYGAIYSVSGPVVIAENMIGCAMYELVKVGHDNLVGEVIRIDGDKATIQVYEETAGLTVGDPVLRTGKPLSVELGPGLMETIYDGIQRPLKAIKEESQSIYIPRGIDTPALDRTIKWQFTPGKFQVGDHISGGDIYGSVFENSLISSHKILLPPRSRGTITWIAPAGEYTLDEKILEVEFDGKKSDFTLYHTWPVRVPRPVTEKLSADYPLLTGQRVLDALFPCVQGGTTCIPGAFGCGKTVISQSLSKYSNSDAIIYVG
chain 2: CGERGNEMAEVLMEFPELYTEMSGTKEPIMKRTTLVANTSNMPVAAREASIYTGITLAEYFRDQGKNVSMIADSSSRWAEALREISGRLGEMPADQGFPAYLGAKLASFYERAGKAVALGSPDRTGSVSIVAAVSPAGGDFSDPVTTATLGITQVFWGLDKKLAQRKHFPSINTSVSYSKYTNVLNKFYDSNYPEFPVLRDRMKEILSNAEELEQVVQLVGKSALSDSDKITLDVATLIKEDFLQQNGYSTYDAFCPIWKTFDMMRAFISYHDEAQKAVANGANWSKLADSTGDVKHAVSSSKFFEPSRGEKEVHGEFEKLLSTMQERFAESTD
chain 3: VLSDKELFAINKKAVEQGFNVKPRLNYNTVSGVNGPLVILEKVKFPRYNEIVNLTLPDGTVRQGQVLEIRGDRAIVQVFEGTSGIDVKKTTVEFTGESLRIPVSEDMLGRIFDGSGRPIDNGPKVFAEDYLDINGSPINPYARIYPEEMISTGVSAIDTMNSIARGQKIPIFSASGLPHNEIAAQICRQAGLVRPTKDVHDGHEENFSIVFAAMGVNLETARFFKQDFEENGSLERTSLFLNLANDPTIERIITPRLALTTAEYLAYQTERHVLTILTDMSSYADALREVSAAREEVPGRRGYPGYMYTDLSTIYERAGRVEGRNGSITQIPILTMPNDDITHPIPDLTGYITEGQIFVDRQLHNKGIYPPINVLPSLSRLMKSAIGEGMTRKDHGDVSNQLYAKYAIGKDAAAMKAVVGEEALSIEDKLSLEFLEKFEKTFITQGAYEDRTVFESLDQAWSLLRIYPKEMLNRISPKILDEFYDRARDDADEDEEDPDTRSSGKKKDASQEESLI
Protein B1 has a Km of 41.7 µM and a kcat of 9.6 s⁻¹.
